Results: patent US20210063395
Like-named read-outs stand apart in the source and are kept apart here.

Key:
gliadin [1] = conditions: Gli4-FAM-PEG-rGO/Q-glia fluorescence at 520 nm; differs from Table 1 value
gliadin [2] = conditions: Gli4-FAM-PEG-rGO/Q-glia fluorescence recovery at 520 nm, 100 nM aptamer; SE 0.1912; p66 gives about 0.11 ppm
[3] = tested on: Q-gliadin (gliadin-BHQ-1 quencher conjugate); conditions: Gli4-FAM-PEG-rGO fluorescence at 520 nm; SE 0.02
[4] = tested on: lactose protein (as named; milk protein presumably); conditions: Gli4-FAM-PEG-rGO/Q-glia fluorescence at 520 nm; specificity control

## CCAGTCTCCCGTTTACCGCGCCTACACATGTCTGAATGCC [Gli4-FAM]
Gliadin [1]
  Kd: 0.11 ppm
Gliadin [2]
  Kd: 0.76 ppm
[3]
  Kd: 148 ppm
[4]
  Kd: 13.2 ppm
